Key:
Test in all cases: pull-down binding Z-score (relative to library population); higher = stronger binding
[1] = system: TO-3-N3 (biotin conjugate); details: RNA library: Library-2
In short: (§1)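 Binding is given as a Z-score against the library mean and standard deviation, calculated after removing the beads-only signal and averaging barcoded replicate probes without their highest and lowest values. Cy5- or Cy3-end-labelled RNA library (1 μg) was heat-folded in phosphate/NaCl/KCl buffer and incubated 60 min at 25 °C with streptavidin beads bearing 100 pmol of biotin-conjugated small molecule. After three washes, RNA eluted in hot SDS was hybridised to a DNA barcode microarray for 20 h at 55.5 °C.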

TO-N3 (biotin conjugate) = details: RNA library: Library-2
In short: as §1

[2] = system: TO-3-N3-2 (biotin conjugate); details: RNA library: Library-2
In short: as §1

[3] = system: G-clamp-N3 (biotin conjugate); details: RNA library: Library-1 (pre-miRNA loops + repeats)
In short: as §1

[4] = system: TO-N3-2 (biotin conjugate); details: RNA library: Library-2
In short: as §1

Row | Sequence | pull-down binding Z-score [1] | pull-down binding Z-score (TO-N3 (biotin conjugate)) | pull-down binding Z-score [2] | pull-down binding Z-score [3] | pull-down binding Z-score [4]
1 | AUGGAGGCUGCUUCUCCUCAGCAGCUGCCAUA [hsa-mir-3651] | -0.15 | -0.13 | -0.382 | 0.277 | 0.366
2 | UAUUCGCUUUAUUGACUUCGAAUA [hsa-mir-369] | -0.0221 | -0.246 | -0.144 | -0.422 | -0.736
3 | GUCAUUUCCCAUCACUAAUGGC [hsa-mir-6815] | -0.674 | -0.873 | -0.336 | -0.92 | -0.881
4 | GGAGCUCUGUCCUGUCUCACUCAUUGCUCC [hsa-mir-6749] | -0.331 | -0.473 | -0.272 | -0.199 | 0.177
5 | UAUAUGCUUUUUAAAUGGGGCACAGA [hsa-mir-5586] | -0.275 | -0.26 | 0.0323 | 2 | -0.177
6 | GGCGCUGUCUUGAGACAUUCGCGCAGUGCA [hsa-mir-3177] | -0.111 | 0.646 | -0.209 | -0.296 | 2.23
7 | AACGUUAUGUGUGGUCUUUAACCUGUU [hsa-mir-6755] | -0.152 | -0.139 | 0.16 | -1.32 | -0.171
8 | GGGAGUGGUUCCAUCACGCCUCCUCAC [hsa-mir-483] | -0.089 | 0.311 | -0.147 | -0.668 | 0.658
9 | CUGCAGGAAAGGGAAGACCAAGGCUUGCUGUCUGUCCAGUCUGCCACCCUACCCUGU [hsa-mir-1231] | -0.0839 | 0.788 | 0.108 | -0.156 | 1.54
10 | CUCGUCUCUACAAAAAAUUGAGACAGG [hsa-mir-4512] | 0.00896 | -0.152 | -0.15 | -0.338 | -0.632
11 | AUUCUGGCUAGGUGAUCAUCAGAAU [hsa-mir-5583-1] | -0.794 | -1.07 | -0.406 | 0.902 | -0.726
12 | UCAUUUAUGUGAACUAAAAUAUAAAUUU [hsa-mir-513a-2_513a-1] | -1.03 | -1.25 | -0.361 | -1.8 | -1.11
13 | UUUUGACAUUACUUUCAAAGACAAAA [hsa-mir-548f-1] | -0.771 | -1.09 | -0.214 | -1.58 | -1.23
14 | AGAACAGAUAUAUCCACAGUACACUUGGCUGUUCU [hsa-mir-4753] | -0.759 | -0.943 | -0.354 | 0.593 | -0.635
15 | GGAUAGAAACUAUUAUUCUAUUC [hsa-mir-664a] | -0.357 | -0.784 | -0.303 | -0.818 | -1.38
16 | UUUGUAUUGUGGUUCAGUACCAUGCAAA [hsa-mir-6507] | -0.367 | -0.633 | -0.36 | -0.552 | -0.933
17 | UGAGUGCCGACUGGCGCCUG [hsa-mir-4750] | -0.164 | 0.0638 | -0.448 | -0.352 | 0.446
18 | GAGGUGGGAAGGCUGCCCCAAAUGGCCUCUAACAUCCCUUCCAGUCUCCUCCUC [hsa-mir-6127] | -0.0543 | 0.194 | 0.23 | -0.236 | 0.919
19 | UUUUGUCUGA [hsa-mir-553] | -0.414 | -0.549 | -0.242 | -1.4 | -0.491

Row | Sequence | pull-down binding Z-score [1] | pull-down binding Z-score (TO-N3 (biotin conjugate)) | pull-down binding Z-score [2] | pull-down binding Z-score [3] | pull-down binding Z-score [4]
20 | AGCUUUAUGUAUUCUGAAGUUAUUGAAAAUAAGAGCU [hsa-mir-3140] | -0.877 | -1.1 | -0.254 | -0.628 | -0.911
21 | CAGUCCUGAGAUGCAGGGACUG [hsa-mir-4799] | -0.626 | -0.644 | -0.531 | 0.166 | -0.727
22 | CAGAGCUGCAGCUGCUCCACCCUG [hsa-mir-6730] | 0.563 | 1.12 | 0.319 | -0.915 | 1.42
23 | GUCACAAAUUCAAAUAAAGUGAG [hsa-mir-4693] | 1.05 | 1.03 | 0.544 | -1.04 | 0.598
24 | ACAGUGGACUUGGUGACGCUGU [hsa-mir-675] | -0.46 | -0.456 | -0.252 | 1.67 | -0.259
25 | GAUUCUGAUUCAGGGACCAAGAUUC [hsa-mir-544a] | 0.724 | 1.04 | 0.354 | 0.649 | 0.414
26 | ACUUUCUGGUGCCAGAAUGAAAGU [hsa-mir-512-2_512-1] | -0.391 | -0.538 | -0.218 | -0.15 | 0.129
27 | CAAGUCCGUCUUCCUGAGAGGUUUG [hsa-mir-133b] | -0.412 | -0.0806 | -0.284 | -0.401 | 0.836
28 | CUUACUGCCCGGGCCGCCCUCAGUAA [hsa-mir-212] | 0.545 | 1.17 | 0.033 | -1.81 | 1.45
29 | AGCGCGGCGACCGUAACUCCU [hsa-mir-1237] | 0.152 | 0.724 | 0.313 | -0.629 | 1.65
30 | GAAGAUUCUGAAAAUCACUAACU [hsa-mir-6878] | 0.159 | 0.273 | 0.167 | -1.6 | -0.0867
31 | GUCUGUCACUGGGGAAGUC [hsa-mir-4682] | 0.735 | 1.19 | 0.276 | 1.71 | 0.993
32 | GCUGGUGACAUUGCUAAUUCAUUUCACACCAGC [hsa-mir-4293] | -0.991 | -1.31 | -0.177 | -0.642 | -0.912
33 | GCAGUCUGCUUUGUGCCAACACUGGGGUGAUGACUGC [hsa-mir-3157] | 0.502 | 0.442 | -0.203 | 1.23 | 0.186
34 | AGUUCGCUUUUAUUAAUGACGAAUA [hsa-mir-410] | -0.624 | -0.628 | -0.0101 | -0.994 | -0.121
35 | CUCUCCUGACCAGCUGAGCUGGAGGAGAG [hsa-mir-3160-2] | -0.0412 | -0.48 | -0.397 | 1.35 | -1.08
36 | CGUUCCAAUGCGACACCUCUAGAGUGUCAUCCCCUAGAAUGUCACCUUGGAAAG [hsa-mir-4432] | -0.119 | -0.0844 | -0.104 | -1.26 | -0.0713
37 | CAGGCAGUGGAGUUACUU [hsa-mir-600] | 0.683 | 1.01 | 0.557 | -1.07 | 1
38 | GCUUCUGCGUUAUCUGGAAGG [hsa-mir-4706] | -0.466 | -0.25 | -0.131 | -0.078 | 0.26

Row | Sequence | pull-down binding Z-score [1] | pull-down binding Z-score (TO-N3 (biotin conjugate)) | pull-down binding Z-score [2] | pull-down binding Z-score [3] | pull-down binding Z-score [4]
39 | UUUUGCAUUUAAAGUAAUGGCCAAA [hsa-mir-548ay] | -0.735 | -0.77 | -0.285 | 2.31 | -0.173
40 | AAUUGGCUUUUACAAAAGACCAACU [hsa-mir-4798] | 0.117 | 0.0359 | -0.259 | 0.914 | -0.6
41 | GAGCUUCGUGUACAUUAUCUAUUAGAAAAUGAAGUAC [hsa-mir-4724] | 0.0277 | 0.0579 | -0.033 | -0.219 | 0.0115
42 | UCCCAGGAAAUUCACUUUAGGAAGUCCUAGGA [hsa-mir-5571] | -0.734 | -1.1 | -0.303 | 0.804 | -1.41
43 | GCUUAUACGUGCCCUUGCU [hsa-mir-8075] | -0.186 | 0.318 | 0.345 | -1.63 | 0.504
44 | GGGGGUGGCCGGGGCUGACCCU [hsa-mir-939] | 2.48 | 2.56 | 1.8 | 0.0126 | 2.08
45 | UUUCUCUUGUCCAAAGGAAAAGAAG [hsa-mir-524] | -0.644 | -0.636 | -0.376 | -0.493 | -0.747
46 | GCCUGCGGGCAGGAAGCGGA [hsa-mir-3928] | 1.57 | 1.87 | 1.34 | -0.0318 | 2.23
47 | AGUGCUAGGACACU [hsa-mir-374c] | -0.441 | -0.616 | -0.413 | -0.247 | -0.579
48 | CUGGUAGUAUAAAACCCAG [hsa-mir-934] | -0.0745 | -0.151 | -0.114 | 0.805 | -0.468
49 | UCCUGAUGGUCCCCUCCCCAGGG [hsa-mir-185] | 0.122 | 0.275 | -0.187 | -1.02 | 0.784
50 | CAGAGAUGAAAUUGGGACUCCUCU [hsa-mir-7157] | 0.189 | 0.499 | 0.343 | -0.282 | 0.835
51 | UGGAGGGGGUUUGUUUGCUUAUUCCCCUCU [hsa-mir-6737] | 0.936 | 0.918 | 0.705 | 0.456 | 0.633
52 | GAGACUGCCCAAAGACUCUUCAGUAUC [hsa-mir-2681] | 0.782 | 0.738 | 0.272 | -0.411 | 0.223
53 | CUCCUAUUGAAAAUGAACAGGAG [hsa-mir-873] | -0.0676 | -0.285 | -0.299 | -0.315 | -0.875
54 | CUGGGAAGAGACCAUGAACAGGUUAGUCCAG [hsa-mir-4327] | 0.385 | 0.536 | -0.286 | -0.176 | -0.495
55 | GCAGGGACCCCUCCAAGUUGGGGACGGCAGC [hsa-mir-6858] | 0.172 | 0.676 | 0.0497 | -0.0891 | 1.09
56 | AUCUAUUCCAGAAGAU [hsa-mir-4696] | -0.911 | -1.28 | -0.62 | 1.53 | -1.35
57 | GCGGGGUGUGGUGGGGCUGGGGCUGGCCCCCUCCUCACACCUC [hsa-mir-6800] | 4.74 | 4.29 | 5.35 | 1.21 | 3.96
